# Measurements taken from patent publication US10428140B2, “Anti-EphA4 antibody” (EISAI R&D MANAGEMENT CO., LTD., priority 2015, dated 2019).
# T1: human EphB1 (Homo sapiens, UniProt P54762)
# T1 construct: a protein of the extracellular region of each human Eph receptor fused with the SEAP protein and the His tag; made in house; host or cells: Expi293F cells (culture supernatant)
# T1 sequence (P54762 18-540 limits assumed): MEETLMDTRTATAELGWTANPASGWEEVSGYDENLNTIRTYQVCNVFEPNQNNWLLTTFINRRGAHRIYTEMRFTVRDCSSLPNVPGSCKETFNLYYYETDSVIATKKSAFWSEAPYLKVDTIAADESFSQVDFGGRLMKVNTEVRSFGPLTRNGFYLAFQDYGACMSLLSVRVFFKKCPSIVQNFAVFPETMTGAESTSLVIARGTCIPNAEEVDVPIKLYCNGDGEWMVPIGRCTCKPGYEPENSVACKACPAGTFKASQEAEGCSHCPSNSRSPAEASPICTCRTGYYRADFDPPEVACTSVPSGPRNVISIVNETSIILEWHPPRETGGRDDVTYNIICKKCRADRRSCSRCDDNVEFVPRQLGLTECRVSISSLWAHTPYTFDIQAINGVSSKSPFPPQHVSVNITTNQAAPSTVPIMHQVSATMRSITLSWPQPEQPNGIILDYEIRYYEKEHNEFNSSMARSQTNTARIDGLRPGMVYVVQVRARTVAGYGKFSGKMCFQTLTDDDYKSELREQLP
# T2: human EphB4 (Homo sapiens, UniProt P54760)
# T2 construct: a protein of the extracellular region of each human Eph receptor fused with the SEAP protein and the His tag; made in house; host or cells: Expi293F cells
# T2 sequence (P54760 16-539 limits assumed): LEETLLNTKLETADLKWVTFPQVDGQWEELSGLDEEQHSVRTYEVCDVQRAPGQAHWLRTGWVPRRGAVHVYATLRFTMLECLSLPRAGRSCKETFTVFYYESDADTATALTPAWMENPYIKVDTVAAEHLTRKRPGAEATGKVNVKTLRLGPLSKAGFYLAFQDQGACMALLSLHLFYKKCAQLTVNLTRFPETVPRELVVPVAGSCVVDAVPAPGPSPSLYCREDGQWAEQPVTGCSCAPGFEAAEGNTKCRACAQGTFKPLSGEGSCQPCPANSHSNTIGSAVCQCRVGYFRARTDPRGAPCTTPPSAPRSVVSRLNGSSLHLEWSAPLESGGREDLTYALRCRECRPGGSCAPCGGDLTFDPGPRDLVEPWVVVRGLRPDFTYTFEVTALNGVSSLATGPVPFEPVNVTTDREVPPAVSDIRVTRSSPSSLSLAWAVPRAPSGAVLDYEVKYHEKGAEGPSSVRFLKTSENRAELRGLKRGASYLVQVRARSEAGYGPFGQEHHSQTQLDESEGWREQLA
# T3: human EphB6 (Homo sapiens, UniProt O15197)
# T3 construct: a protein of the extracellular region of each human Eph receptor fused with the SEAP protein and the His tag; made in house; host or cells: Expi293F cells
# T3 sequence (O15197 32-594 limits assumed): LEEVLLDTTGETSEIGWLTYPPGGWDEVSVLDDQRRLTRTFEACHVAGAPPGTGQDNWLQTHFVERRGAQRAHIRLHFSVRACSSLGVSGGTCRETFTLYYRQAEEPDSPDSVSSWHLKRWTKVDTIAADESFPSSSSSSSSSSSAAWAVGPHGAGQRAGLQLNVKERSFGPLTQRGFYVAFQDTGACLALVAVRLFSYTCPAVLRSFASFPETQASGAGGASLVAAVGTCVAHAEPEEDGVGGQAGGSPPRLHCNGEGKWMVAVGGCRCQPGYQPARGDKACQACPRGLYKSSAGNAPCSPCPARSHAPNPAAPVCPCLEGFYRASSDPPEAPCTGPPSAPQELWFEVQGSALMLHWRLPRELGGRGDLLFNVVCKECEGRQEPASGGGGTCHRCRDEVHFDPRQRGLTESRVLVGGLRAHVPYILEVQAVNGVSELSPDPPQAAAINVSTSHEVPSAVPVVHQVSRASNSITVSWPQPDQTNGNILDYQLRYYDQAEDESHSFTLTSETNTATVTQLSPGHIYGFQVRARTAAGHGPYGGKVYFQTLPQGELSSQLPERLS
# B1: 69 (antibody, V domains shown)
# VH: QIQLVQSGSELKKPGASVKVSCKASGYTFTDYSMHWVRQAPGQGLKWMGWINTETGEPTYADDFKGRFVFSLDTSVSTAYLQISSLKAEDTAVYYCARIPLYYYGSRYWYFDVWGQGTTVTVSS
# VL: DIQMTQSPSSLSASVGDRVTITCRASENIYRNLAWYQQKPGKAPKLLVYAATNLADGVPSRFSGSGSGTDYTLTISSLQPEDFATYYCQHFWGTPWTFGQGTKVEIK
# modifications: synthetic humanized antibody heavy chain variable region sequence; synthetic humanized antibody light chain variable region sequence
# B2: 86 (antibody, V domains shown)
# VL: DIQMTQSPSSLSASVGDRVTITCRASENIYRNLAWYQQKPGKAPKLLLYAATNLADGVPSRFSGSGSGTDYTLTISSLQSEDFATYYCQHFWGTPWTFGQGTKVEIK
# VH: QIQLVQSGSELKKPGASVKVSCKASGYTFTDYSMHWVRQAPGQGLKWMGWINTETGEPTYADDFKGRFVFSLDTSVSTAYLQISSLKAEDTAVYYCARIPLYYYGSRYWYFDVWGQGTTVTVSS
# modifications: constant regions without entry; synthetic humanized antibody light chain variable region sequence; synthetic humanized antibody heavy chain variable region sequence
# B3: 85 (antibody, V domains shown)
# VL: DIQMTQSPSSLSASVGDRVTITCRASENIYRNLAWYQQKPGKAPKLLLYAATNLADGVPSRFSGSGSGTDYTLTISSLQSEDFATYYCQHFWGTPWTFGQGTKVEIK
# VH: QVQLVQSGSELKKPGASVKVSCKASGYTFTDYSMHWVRQAPGQGLKWMGWINTETGEPTYADDFKGRFVFSLDTSVSTAYLQISSLKAEDTAVYYCARIPLYYYGSRYWYFDVWGQGTTVTVSS
# modifications: constant regions without entry; synthetic humanized antibody light chain variable region sequence; synthetic humanized antibody heavy chain variable region sequence
# B4: 84 (antibody, V domains shown)
# VL: DIQMTQSPSSLSASVGDRVTITCRASENIYRNLAWYQQKPGKAPKLLLYAATNLADGVPSRFSGSGSGTDYTLTISSLQSEDFATYYCQHFWGTPWTFGQGTKVEIK
# VH: QVQLVQSGSELKKPGASVKVSCKASGYTFTDYSMHWVRQAPGQGLEWMGWINTETGEPTYADDFKGRFVFSLDTSVSTAYLQISSLKAEDTAVYYCARIPLYYYGSRYWYFDVWGQGTTVTVSS
# modifications: constant regions without entry; synthetic humanized antibody light chain variable region sequence; synthetic humanized antibody heavy chain variable region sequence
# B5: 81 (antibody, V domains shown)
# VL: DIQMTQSPSSLSASVGDRVTITCRASENIYRNLAWYQQKPGKAPKLLLYAATNLADGVPSRFSGSGSGTDYTLTISSLQSEDFATYYCQHFWGTPWTFGQGTKVEIK
# VH: QVQLVQSGSELKKPGASVKVSCKASGYTFTDYSMHWVRQAPGQGLEWMGWINTETGEPTYAQGFTGRFVFSLDTSVSTAYLQISSLKAEDTAVYYCARIPLYYYGSRYWYFDVWGQGTTVTVSS
# modifications: constant regions without entry; synthetic humanized antibody light chain variable region sequence; synthetic humanized antibody heavy chain variable region sequence
# B6: 82 (antibody, V domains shown)
# VL: DIQMTQSPSSLSASVGDRVTITCRASENIYRNLAWYQQKPGKAPKLLLYAATNLADGVPSRFSGSGSGTDYTLTISSLQSEDFATYYCQHFWGTPWTFGQGTKVEIK
# VH: QVQLVQSGSELKKPGASVKVSCKASGYTFTDYSMHWVRQAPGQGLKWMGWINTETGEPTYAQGFTGRFVFSLDTSVSTAYLQISSLKAEDTAVYYCARIPLYYYGSRYWYFDVWGQGTTVTVSS
# modifications: constant regions without entry; synthetic humanized antibody light chain variable region sequence; synthetic humanized antibody heavy chain variable region sequence
# B7: 87 (antibody, V domains shown)
# VL: DIQMTQSPSSLSASVGDRVTITCRASENIYRNLAWYQQKPGKAPQLLLYAATNLADGVPSRFSGSGSGTDYTLTISSLQPEDFATYYCQHFWGTPWTFGQGTKVEIK
# VH: QVQLVQSGSELKKPGASVKVSCKASGYTFTDYSMHWVRQAPGQGLEWMGWINTETGEPTYAQGFTGRFVFSLDTSVSTAYLQISSLKAEDTAVYYCARIPLYYYGSRYWYFDVWGQGTTVTVSS
# modifications: constant regions without entry; synthetic humanized antibody light chain variable region sequence; synthetic humanized antibody heavy chain variable region sequence
# B8: 83 (antibody, V domains shown)
# VL: DIQMTQSPSSLSASVGDRVTITCRASENIYRNLAWYQQKPGKAPKLLLYAATNLADGVPSRFSGSGSGTDYTLTISSLQSEDFATYYCQHFWGTPWTFGQGTKVEIK
# VH: QIQLVQSGSELKKPGASVKVSCKASGYTFTDYSMHWVRQAPGQGLKWMGWINTETGEPTYAQGFTGRFVFSLDTSVSTAYLQISSLKAEDTAVYYCARIPLYYYGSRYWYFDVWGQGTTVTVSS
# modifications: constant regions without entry; synthetic humanized antibody light chain variable region sequence; synthetic humanized antibody heavy chain variable region sequence
# Legend:
# Experiment in all cases: Selectivity ELISA of humanized antibodies for human Eph receptor
# Format in all cases: binding
# Settings in all cases: coated protein 1 nM
# human EphB1 = biological target: T1, human EphB1
# Method in brief: (§1)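 Read-out is A450 after TMB development stopped with 1N H2SO4. Plates bore anti-His-captured human Eph extracellular region-SEAP-His proteins at 1 nM final, made in Expi293F cells. Humanized antibody binding ran 1 h at room temperature before HRP-labeled anti-IgG detection.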
# human EphB4 = biological target: T2, human EphB4
# Method in brief: as §1
# human EphB6 = biological target: T3, human EphB6
# Method in brief: as §1
Molecule,"hEphB1-SEAP-: absorbance at 450 nm, percentage with respect to hEphA4-SEAP-His as 100% (human EphB1)","hEphB4-SEAP-: absorbance at 450 nm, percentage with respect to hEphA4-SEAP-His as 100% (human EphB4)","hEphB6-SEAP-: absorbance at 450 nm, percentage with respect to hEphA4-SEAP-His as 100% (human EphB6)"
B1,5.6%,5.5%,5.6%
B2,5.7%,5.8%,5.7%
B3,5.0%,5.2%,5.2%
B4,5.2%,5.4%,4.9%
B5,4.9%,5.0%,5.0%
B6,5.4%,5.7%,5.5%
B7,5.3%,5.5%,5.3%
B8,5.6%,5.7%,5.8%
